B1: CDC14A (parent)
chain: LNLAMVYRYCCKLNKKLKSYSLSR

Variants of: B1
Experiment: protein stability index of a GFP-peptide fusion (GPS, HEK-293T) (PSI 1-6); higher = more stable
Conditions: c terminus: a fixed tail appended
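Further: lentivirally expressed fusions sorted by FACS into six bins by GFP to DsRed ratio, PSI derived from sequencing read proportions per bin multiplied by bin number.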

Row | Variant | protein stability index
1 | LNLAMVYKYCCKLNKKLKSYSLSR [R8K] | 2.08
2 | LNLAMVYQYCCKLNKKLKSYSLSR [R8Q] | 2.26
3 | LNLAMVYEYCCKLNKKLKSYSLSR [R8E] | 2.43
4 | LNLAMVYVYCCKLNKKLKSYSLSR [R8V] | 3.11
5 | LNLAMVYFYCCKLNKKLKSYSLSR [R8F] | 3.02
6 | LNLAMVYNYCCKLNKKLKSYSLSR [R8N] | 1.97
7 | LNLAMVYRYCCKLNKKLKGYSLSR [S19G] | 2.5
8 | LNLAMVYRYCCKLNKKLKCYSLSR [S19C] | 2.98
9 | LNLAMVYRYCCKLNKKLKPYSLSR [S19P] | 2.75
10 | LNLAMVYRYCCKLNKKLKHYSLSR [S19H] | 2.3
11 | LNLAMVYRYCCKLNKKLKAYSLSR [S19A] | 3.52
12 | LNLAMVYRYCCKLNKKLKRYSLSR [S19R] | 3.44
13 | LNLAMVYRYCCKLNKKLKMYSLSR [S19M] | 3.69
14 | LNLAMVYRCCCKLNKKLKSYSLSR [Y9C] | 2.59
15 | LNLAMVYRSCCKLNKKLKSYSLSR [Y9S] | 2.19
16 | LNLAMVYRKCCKLNKKLKSYSLSR [Y9K] | 3.54
17 | LNLAMVYRHCCKLNKKLKSYSLSR [Y9H] | 2.48
18 | LNLAMVYRTCCKLNKKLKSYSLSR [Y9T] | 2.54
19 | LNLAMVYRDCCKLNKKLKSYSLSR [Y9D] | 2.91
20 | LNLAMVYRVCCKLNKKLKSYSLSR [Y9V] | 2.44
21 | LNLAMVYRQCCKLNKKLKSYSLSR [Y9Q] | 3.9
22 | LNLAMVYRICCKLNKKLKSYSLSR [Y9I] | 2.02
23 | LNLAMVYRPCCKLNKKLKSYSLSR [Y9P] | 1.41
24 | LCLAMVYRYCCKLNKKLKSYSLSR [N2C] | 3.28

Row | Variant | protein stability index
25 | LLLAMVYRYCCKLNKKLKSYSLSR [N2L] | 2.17
26 | LPLAMVYRYCCKLNKKLKSYSLSR [N2P] | 3.42
27 | LALAMVYRYCCKLNKKLKSYSLSR [N2A] | 3.34
28 | LWLAMVYRYCCKLNKKLKSYSLSR [N2W] | 3.17
29 | LMLAMVYRYCCKLNKKLKSYSLSR [N2M] | 3.27
30 | LYLAMVYRYCCKLNKKLKSYSLSR [N2Y] | 2.64
31 | LNLAMVGRYCCKLNKKLKSYSLSR [Y7G] | 2.43
32 | LNLAMVMRYCCKLNKKLKSYSLSR [Y7M] | 1.91
33 | LNLAMVPRYCCKLNKKLKSYSLSR [Y7P] | 2.23
34 | LNLAMVERYCCKLNKKLKSYSLSR [Y7E] | 2.16
35 | LNLAMVTRYCCKLNKKLKSYSLSR [Y7T] | 3.96
36 | LNLAMVVRYCCKLNKKLKSYSLSR [Y7V] | 3.72
37 | LNLAMVARYCCKLNKKLKSYSLSR [Y7A] | 1.85
38 | LNLAMVYRYCCKLNKKLKSYSLNR [S23N] | 2.35
39 | LNLAMVYRYCCKLNKKLKSYSLGR [S23G] | 2.2
40 | LNLAMVYRYCCKLNKKLKSYSLHR [S23H] | 2.36
41 | LNLAMVYRYCCKLNKKLKSYSLQR [S23Q] | 2.53
42 | LNLAMVYRYCCKLNKKLKSYSLDR [S23D] | 2.55
43 | LNLAMVYRYCCKLNKKLKSYSLVR [S23V] | 2.77
44 | LNLAMVYRYCCKLNKKLKSYSLYR [S23Y] | 2.97
45 | LNLAMVYRYCGKLNKKLKSYSLSR [C11G] | 4.89
46 | LNLAMVYRYCIKLNKKLKSYSLSR [C11I] | 3.23
47 | LNLAMVYRYCVKLNKKLKSYSLSR [C11V] | 2.45
48 | LNLAMVYRYCWKLNKKLKSYSLSR [C11W] | 2.15

Row | Variant | protein stability index
49 | LNLAMVYRYCSKLNKKLKSYSLSR [C11S] | 3.77
50 | LNLAMVYRYCCKLNKKVKSYSLSR [L17V] | 4.14
51 | LNLAMVYRYCCKLNKKEKSYSLSR [L17E] | 1.69
52 | LNLAMVYRYCCKLNKKAKSYSLSR [L17A] | 2.65
53 | LNLAMVYRYCCKLNKKPKSYSLSR [L17P] | 3.05
54 | LNLAMVYRYCCKLNKKIKSYSLSR [L17I] | 2.95
55 | LNLAMVYRYCCKLNKKKKSYSLSR [L17K] | 2.24
56 | LNLAMVYRYCCKLNKKLKSKSLSR [Y20K] | 3.24
57 | LNLAMVYRYCCKLNKKLKSCSLSR [Y20C] | 3.44
58 | LNLAMVYRYCCKLNKKLKSASLSR [Y20A] | 2.61
59 | LNLAMVYRYCCKLNKKLKSHSLSR [Y20H] | 3.02
60 | LNLAMVYRYCCKLNKKLKSQSLSR [Y20Q] | 3.1
61 | LNLAMVYRYCCKLNKKLKSYPLSR [S21P] | 3.64
62 | LNLAMVYRYCCKLNKKLKSYMLSR [S21M] | 3.42
63 | LNLAMVYRYCCKLNKKLKSYILSR [S21I] | 3.96
64 | LNLAMVYRYCCKLNKKLKSYYLSR [S21Y] | 2.62
65 | LNLAMVYRYCCKSNKKLKSYSLSR [L13S] | 1.8
66 | LNLAMVYRYCCKGNKKLKSYSLSR [L13G] | 2.49
67 | LNLAMVYRYCCKANKKLKSYSLSR [L13A] | 2.92
68 | LNLAMVYRYCCKINKKLKSYSLSR [L13I] | 2.69
69 | LNLAMVYRYCCKQNKKLKSYSLSR [L13Q] | 3.27
70 | LNLAMVYRYCCKHNKKLKSYSLSR [L13H] | 2
71 | LNLAMVYRYCCKRNKKLKSYSLSR [L13R] | 3.08
72 | LNLAMVYRYCCKWNKKLKSYSLSR [L13W] | 1.96

Row | Variant | protein stability index
73 | LNLAMVYRYCCKMNKKLKSYSLSR [L13M] | 3.6
74 | LNLAMVYRYCCKKNKKLKSYSLSR [L13K] | 1.56
75 | LNLAMVYRYCCKLNMKLKSYSLSR [K15M] | 1.07
76 | LNLAMVYRYCCKLNQKLKSYSLSR [K15Q] | 4.63
77 | LNLAMVYRYCCKLNYKLKSYSLSR [K15Y] | 3.3
78 | LNLAMVYRYCCKLNAKLKSYSLSR [K15A] | 2.87
79 | LNLAMVYRYCCKLNLKLKSYSLSR [K15L] | 3.39
80 | LNLAMVYRYCCKLNFKLKSYSLSR [K15F] | 2.81
81 | LNLAMVYRYCCKLNVKLKSYSLSR [K15V] | 3.04
82 | LNLAMVYRYCCKLNEKLKSYSLSR [K15E] | 3.47
83 | RNLAMVYRYCCKLNKKLKSYSLSR [L1R] | 2.77
84 | INLAMVYRYCCKLNKKLKSYSLSR [L1I] | 3.18
85 | ENLAMVYRYCCKLNKKLKSYSLSR [L1E] | 3.44
86 | ANLAMVYRYCCKLNKKLKSYSLSR [L1A] | 2.44
87 | TNLAMVYRYCCKLNKKLKSYSLSR [L1T] | 2.3
88 | FNLAMVYRYCCKLNKKLKSYSLSR [L1F] | 2.51
89 | YNLAMVYRYCCKLNKKLKSYSLSR [L1Y] | 2.49
90 | LNLAMHYRYCCKLNKKLKSYSLSR [V6H] | 2.03
91 | LNLAMMYRYCCKLNKKLKSYSLSR [V6M] | 2.72
92 | LNLAMAYRYCCKLNKKLKSYSLSR [V6A] | 3.5
93 | LNLAMDYRYCCKLNKKLKSYSLSR [V6D] | 2.05
94 | LNLAMTYRYCCKLNKKLKSYSLSR [V6T] | 2.46
